Source: publication PMC10714720

Test system: T1, QseB (rQseB) (Glaesserella parasuis serovar 5 strain CF7066), ORF:6fe33d28
T1 sequence: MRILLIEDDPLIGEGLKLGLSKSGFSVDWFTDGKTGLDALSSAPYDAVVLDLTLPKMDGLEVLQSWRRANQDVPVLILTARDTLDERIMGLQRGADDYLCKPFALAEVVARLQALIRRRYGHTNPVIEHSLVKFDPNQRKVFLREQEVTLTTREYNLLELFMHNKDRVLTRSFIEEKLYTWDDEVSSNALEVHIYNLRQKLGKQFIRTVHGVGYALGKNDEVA
Experiment: EMSA
Details: 50 mM Tris, 10 mM MgCl2, 0.1 mM DTT

Sequence	binding
GAAGAACTTACGCTGAGTTGTTTAAATAGCTCGTTGAGCAAGGTGAATCCTCAGAAGAGTATGTCGAAGTAATGGGGCATATGCAAGTAGAAATAGATTTAGAAATGATCAAAACCTGAATCTGAAATATTATTTTAAATATATAGTCTTAACTGTCTTAGGAAAAGGCAGTAGAGATAGGATGAGATAACAGT (double strand) [capD promoter (Cy5.5-capD)]	binds
AAATTGCTCCTAGTGTTTATTAGTAAAAGCATTATTGCTTTGTTGAGTGTATTAAAACAGAGAAATCTTAAGAAAGTCTTAAGATAAAAAAATTTATTTTTAGACAAAATCTAATAAAAAAGCGGCAAGATTCGTAAATCCTACCGCTTAGATCACATTATGAAAAAATTAGAATCTATAGTTTGCCCCAATAA (double strand) [qseB promoter (Cy5.5-qseB)]	binds
